Results on 24 variants are retold here after the supplement of paper PMC7125110.

± gives the standard error. Variants at the floor of the assay were thinned out.

B1: glmS ribozyme (parent)
chain: AUAAAAGCGCCAGAACUACAGAAAUGUAGUUGACGAGGAGGAGGUUUAUCGAAUUUUCGGCGGAUGCCUCCAAA

What all share (conditions): with glucosamine-6-phosphate
Variants of B1 are the subject of series [1]. The series can be described thus: self-cleavage kobs at 40 uM GlcN6P; higher = faster cleavage; RNA array. The essentials: (§1)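 A hybridised Cy3 probe tracked barcoded ribozyme variants, transcribed in situ by E. coli RNA polymerase on sequenced MiSeq chips, at 37 °C. The variants received 40 μM to 10 mM glucosamine-6-phosphate in HEPES/KCl/Mg(OAc)2 buffer. kobs came from decay fits and kcat and KM from weighted Michaelis–Menten fits.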

Series [2] covers variants of B1. The series can be described thus: self-cleavage kobs at 10000 uM GlcN6P; higher = faster cleavage; RNA array. Summed up: as §1
Series [3] covers variants of B1. The series can be described thus: self-cleavage kobs at 640 uM GlcN6P; higher = faster cleavage; RNA array. Summed up: as §1
In series [4] the parent is B1. Put plainly: self-cleavage kobs at 2500 uM GlcN6P; higher = faster cleavage; RNA array. Summed up: as §1
Series [5] covers variants of B1. The series can be described thus: self-cleavage kobs at 160 uM GlcN6P; higher = faster cleavage; RNA array. The essentials: as §1

Regarding U47A U57G, the “self-cleavage kobs at 40 uM GlcN6P” value in the series with glucosamine-6-phosphate [1] was less than 1e-05 s⁻¹. The “self-cleavage kobs at 10000 uM GlcN6P” value in the series with glucosamine-6-phosphate [2] is 4.75e-05 ± 8.7e-06 s⁻¹.
For the variant U30C C50A U65A U69G, the “self-cleavage kobs at 40 uM GlcN6P” value with glucosamine-6-phosphate [1] worked out at 4.39e-05 ± 1.7e-05 s⁻¹. Besides, in the series with glucosamine-6-phosphate [3], the “self-cleavage kobs at 640 uM GlcN6P” value came out at 0.000207 ± 5.3e-05 s⁻¹. For the same variant, the “self-cleavage kobs at 2500 uM GlcN6P” value with glucosamine-6-phosphate [4] worked out at 5.84e-05 ± 2.3e-05 s⁻¹. Moreover, the “self-cleavage kobs at 10000 uM GlcN6P” value in the series with glucosamine-6-phosphate [2] is 3.19e-05 ± 1.6e-05 s⁻¹.
For G37A G51A, the “self-cleavage kobs at 40 uM GlcN6P” value with glucosamine-6-phosphate [1] was less than 1e-05 s⁻¹. The “self-cleavage kobs at 640 uM GlcN6P” value with glucosamine-6-phosphate [3] was less than 1e-05 s⁻¹. Besides, the “self-cleavage kobs at 10000 uM GlcN6P” value with glucosamine-6-phosphate [2] is less than 1e-05 s⁻¹.
As for G41A G59A, the “self-cleavage kobs at 40 uM GlcN6P” value with glucosamine-6-phosphate [1] is less than 1e-05 s⁻¹. Also, the “self-cleavage kobs at 160 uM GlcN6P” value in the series with glucosamine-6-phosphate [5] is less than 1e-05 s⁻¹.
In the case of C16G G43C, the “self-cleavage kobs at 40 uM GlcN6P” value in the series with glucosamine-6-phosphate [1] was less than 1e-05 s⁻¹. Besides, the “self-cleavage kobs at 640 uM GlcN6P” value with glucosamine-6-phosphate [3] is less than 1e-05 s⁻¹. In addition, the “self-cleavage kobs at 10000 uM GlcN6P” value with glucosamine-6-phosphate [2] is less than 1e-05 s⁻¹.
In the case of C8A A36C, the “self-cleavage kobs at 40 uM GlcN6P” value with glucosamine-6-phosphate [1] was less than 1e-05 s⁻¹. Also, the “self-cleavage kobs at 160 uM GlcN6P” value with glucosamine-6-phosphate [5] was less than 1e-05 s⁻¹. The “self-cleavage kobs at 2500 uM GlcN6P” value with glucosamine-6-phosphate [4] was less than 1e-05 s⁻¹. Moreover, the “self-cleavage kobs at 10000 uM GlcN6P” value in the series with glucosamine-6-phosphate [2] was less than 1e-05 s⁻¹.
Turning to C10G C34U G38C A64C C67U, the “self-cleavage kobs at 40 uM GlcN6P” value with glucosamine-6-phosphate [1] was less than 1e-05 s⁻¹. Also, the “self-cleavage kobs at 10000 uM GlcN6P” value in the series with glucosamine-6-phosphate [2] was less than 1e-05 s⁻¹.
With C8G A12C U31C G32C, the “self-cleavage kobs at 40 uM GlcN6P” value with glucosamine-6-phosphate [1] is less than 1e-05 s⁻¹.
G38U A64G: the “self-cleavage kobs at 40 uM GlcN6P” value in the series with glucosamine-6-phosphate [1] was less than 1e-05 s⁻¹. For the same variant, the “self-cleavage kobs at 2500 uM GlcN6P” value with glucosamine-6-phosphate [4] is less than 1e-05 s⁻¹.
Consider G38U A64C, for which the “self-cleavage kobs at 40 uM GlcN6P” value with glucosamine-6-phosphate [1] was less than 1e-05 s⁻¹. Further, the “self-cleavage kobs at 160 uM GlcN6P” value with glucosamine-6-phosphate [5] was less than 1e-05 s⁻¹. In addition, in the series with glucosamine-6-phosphate [4], the “self-cleavage kobs at 2500 uM GlcN6P” value is less than 1e-05 s⁻¹. Further, the “self-cleavage kobs at 10000 uM GlcN6P” value with glucosamine-6-phosphate [2] was less than 1e-05 s⁻¹.
In the case of C11A U45C, the “self-cleavage kobs at 40 uM GlcN6P” value with glucosamine-6-phosphate [1] is less than 1e-05 s⁻¹. In addition, in the series with glucosamine-6-phosphate [3], the “self-cleavage kobs at 640 uM GlcN6P” value is less than 1e-05 s⁻¹.
For the variant C10U A14C A36G G41A, the “self-cleavage kobs at 40 uM GlcN6P” value with glucosamine-6-phosphate [1] is less than 1e-05 s⁻¹. In addition, in the series with glucosamine-6-phosphate [5], the “self-cleavage kobs at 160 uM GlcN6P” value is less than 1e-05 s⁻¹. For the same variant, in the series with glucosamine-6-phosphate [3], the “self-cleavage kobs at 640 uM GlcN6P” value was less than 1e-05 s⁻¹. The “self-cleavage kobs at 2500 uM GlcN6P” value with glucosamine-6-phosphate [4] is less than 1e-05 s⁻¹.
On to C8G A36U G60C, for which, in the series with glucosamine-6-phosphate [1], the “self-cleavage kobs at 40 uM GlcN6P” value was less than 1e-05 s⁻¹. The “self-cleavage kobs at 10000 uM GlcN6P” value in the series with glucosamine-6-phosphate [2] was less than 1e-05 s⁻¹.
For the variant U45C U47C G62U C68U, in the series with glucosamine-6-phosphate [5], the “self-cleavage kobs at 160 uM GlcN6P” value is less than 1e-05 s⁻¹.
As for G51A U65G, the “self-cleavage kobs at 40 uM GlcN6P” value in the series with glucosamine-6-phosphate [1] was less than 1e-05 s⁻¹. The “self-cleavage kobs at 160 uM GlcN6P” value with glucosamine-6-phosphate [5] was less than 1e-05 s⁻¹. Besides, the “self-cleavage kobs at 10000 uM GlcN6P” value in the series with glucosamine-6-phosphate [2] is less than 1e-05 s⁻¹.
With C8G A14G U55G, in the series with glucosamine-6-phosphate [1], the “self-cleavage kobs at 40 uM GlcN6P” value is less than 1e-05 s⁻¹. Also, the “self-cleavage kobs at 2500 uM GlcN6P” value with glucosamine-6-phosphate [4] was less than 1e-05 s⁻¹. For the same variant, in the series with glucosamine-6-phosphate [2], the “self-cleavage kobs at 10000 uM GlcN6P” value was less than 1e-05 s⁻¹.
Consider A6U G43A U45G U57A G59U, for which the “self-cleavage kobs at 40 uM GlcN6P” value with glucosamine-6-phosphate [1] was less than 1e-05 s⁻¹. Moreover, in the series with glucosamine-6-phosphate [2], the “self-cleavage kobs at 10000 uM GlcN6P” value is less than 1e-05 s⁻¹.
In the case of G37U G40C G44U, the “self-cleavage kobs at 40 uM GlcN6P” value with glucosamine-6-phosphate [1] is less than 1e-05 s⁻¹.
Consider A36C G41A, for which the “self-cleavage kobs at 40 uM GlcN6P” value with glucosamine-6-phosphate [1] was less than 1e-05 s⁻¹. Besides, in the series with glucosamine-6-phosphate [5], the “self-cleavage kobs at 160 uM GlcN6P” value was less than 1e-05 s⁻¹. The “self-cleavage kobs at 640 uM GlcN6P” value in the series with glucosamine-6-phosphate [3] is less than 1e-05 s⁻¹. For the same variant, the “self-cleavage kobs at 2500 uM GlcN6P” value in the series with glucosamine-6-phosphate [4] was less than 1e-05 s⁻¹. In addition, in the series with glucosamine-6-phosphate [2], the “self-cleavage kobs at 10000 uM GlcN6P” value was less than 1e-05 s⁻¹.
Turning to G41C G44A, the “self-cleavage kobs at 40 uM GlcN6P” value in the series with glucosamine-6-phosphate [1] is less than 1e-05 s⁻¹. For the same variant, the “self-cleavage kobs at 160 uM GlcN6P” value with glucosamine-6-phosphate [5] was less than 1e-05 s⁻¹. For the same variant, the “self-cleavage kobs at 640 uM GlcN6P” value with glucosamine-6-phosphate [3] was less than 1e-05 s⁻¹. For the same variant, the “self-cleavage kobs at 10000 uM GlcN6P” value with glucosamine-6-phosphate [2] is less than 1e-05 s⁻¹.
In the case of G38U G43C A64U, in the series with glucosamine-6-phosphate [1], the “self-cleavage kobs at 40 uM GlcN6P” value was less than 1e-05 s⁻¹. Further, the “self-cleavage kobs at 2500 uM GlcN6P” value with glucosamine-6-phosphate [4] was less than 1e-05 s⁻¹.
On to C8G G63A, for which the “self-cleavage kobs at 40 uM GlcN6P” value with glucosamine-6-phosphate [1] was less than 1e-05 s⁻¹. Besides, the “self-cleavage kobs at 160 uM GlcN6P” value with glucosamine-6-phosphate [5] was less than 1e-05 s⁻¹. In addition, the “self-cleavage kobs at 640 uM GlcN6P” value in the series with glucosamine-6-phosphate [3] was less than 1e-05 s⁻¹. Also, the “self-cleavage kobs at 2500 uM GlcN6P” value with glucosamine-6-phosphate [4] is less than 1e-05 s⁻¹. The “self-cleavage kobs at 10000 uM GlcN6P” value with glucosamine-6-phosphate [2] is less than 1e-05 s⁻¹.
Consider A12G C16A U30G A36G, for which the “self-cleavage kobs at 40 uM GlcN6P” value with glucosamine-6-phosphate [1] is less than 1e-05 s⁻¹.
As to A39G U65C, the “self-cleavage kobs at 160 uM GlcN6P” value in the series with glucosamine-6-phosphate [5] amounted to 5.26e-05 ± 2.5e-05 s⁻¹. Further, the “self-cleavage kobs at 640 uM GlcN6P” value with glucosamine-6-phosphate [3] worked out at 0.000513 ± 0.00015 s⁻¹. In addition, in the series with glucosamine-6-phosphate [4], the “self-cleavage kobs at 2500 uM GlcN6P” value was 0.00163 ± 0.0005 s⁻¹.
